Measured values taken from patent US12466853B2, “Selective targeting of apoptosis proteins by structurally-stabilized and/or cysteine-reactive NOXA peptides” (priority 2017, dated 2025).
Positions count from the first letter of the chain named. “Also recorded” adds a separate entry of the source. Positions of bridges follow the written chain, without caps; N, C: chain ends. Non-standard residues stand in square brackets, D forms with d. No end group written: not given here. R8 = C=CCCCCCC[C@@](C)(N)C(=O)O; S5 = C=CCCC[C@](C)(N)C(=O)O

Tests used:
His-BFL-1ΔC C4S/C19S = biological target: T1, His-BFL-1ΔC C4S/C19S (Homo sapiens, UniProt Q16548, C19S/C4S); experiment: In vitro covalent conjugation assay (gel shift, Coomassie; intact mass spectrometry); assay type: binding
T1 construct: Recombinant anti-apoptotic BFL-1ΔC (aa 1-151) and its cysteine to serine mutants were cloned into PET17b; made in house; host or cells: Escherichia coli LOBSTR BL21(DE3)
T1 sequence (Q16548 1-151 C4S/C19S): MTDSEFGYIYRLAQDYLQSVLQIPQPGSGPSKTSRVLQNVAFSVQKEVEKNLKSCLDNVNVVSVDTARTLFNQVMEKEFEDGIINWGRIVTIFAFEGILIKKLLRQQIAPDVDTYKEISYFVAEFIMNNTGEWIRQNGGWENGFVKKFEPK
Description: To generate constructs with particular binding selectivities, cell penetrance properties, in vivo stability, and biological activity to enable the development of a drug for clinical use, staple scanning methodology was first used to generate a library of cysteine-reactive NOXA SAHBs to optimize binding potency, selectivity, and cellular penetrance. […] Staple scanning was achieved by sequential placement of (i, i+4) and (i, i+7) staples across the length of the peptide template, while keeping the N-terminal D-nipecotic acid (D-NA) reactive group constant (FIG. 2). We measured the reactivity of this NOXA library by incubating each peptide with BFL-1ΔC and detecting a higher molecular weight conjugate upon reducing and denaturing gel electrophoresis, and Coomassie staining (FIG. 3). Those peptides capable of covalent reaction with BFL-1 were advanced to cellular testing for peptide uptake. 293T cells transfected with HA-BFL-1ΔC C4S/C19S were treated with peptide (20 μM, 6 hr), and then harvested and lysates analyzed by anti-HA western blotting (FIG. 4). […] However, upon LDH release testing in A375P cells, this peptide was unexpectedly found to cause membrane disruption (FIG. 5). […]

A375P cells = experiment: LDH release assay, A375P cells; assay type: cell-based, human; conditions: 30 min
Protocol: After overnight incubation for A375P cells, or immediately upon plating for U937 cells, the cells were treated with the indicated concentrations of D-NA-NOXA SAHBs in DMEM or RPMI supplemented with 5% FBS for the indicated time period (30 min, 4 h). After plate centrifugation at 1,500 rpm (Thermo Scientific Sorvall Four-Place Swinging Bucket Rotor [75006445]; 478×g) for 5 min at 4° C., LDH release was quantified by transferring 100 μL of cell-culture medium to a clear plate (Corning), incubating with 100 μL of LDH reagent (Roche) for 30 min while shaking, and then measuring absorbance at 490 nm on a microplate reader (Spectramax M5, Molecular Devices).

His-BFL-1ΔC = biological target: T2, His-BFL-1ΔC (Homo sapiens, UniProt Q16548); experiment: Streptavidin pulldown from recombinant protein mixture, BFL-1; assay type: binding; conditions: equimolar mixture of recombinant MCL-1, BCL-XL, BFL-1 and biotinylated SAHB, silver stain; listed as D-NA-NOXA SAHB
T2 construct: Recombinant anti-apoptotic BFL-1ΔC (aa 1-151) and its cysteine to serine mutants were cloned into PET17b; made in house; host or cells: Escherichia coli LOBSTR BL21(DE3)
T2 sequence (Q16548 1-151): T1 sequence (Q16548 1-151 C4S/C19S) with S4C, S19C
Protocol: (§1) WT His-BFL-1ΔC, BCL-XLΔC (tagless), and GST-MCL-1ΔNΔC (1 μM each) were combined and incubated with 3 mM DTT in PBS for thirty minutes at room temperature. Mixtures were treated with vehicle or the indicated C-terminally biotinylated NOXA SAHB (1 μM) for four hours and were then added to 30 μL PBS-washed high-capacity streptavidin (SA) agarose beads (Thermo Fisher Pierce) and incubated with rotation at room temperature for two hours. The beads were then washed three times with NP-40 lysis buffer (1% NP-40, 50 mM Tris pH 8, 100 mM NaCl, 2.5 mM MgCl2) and three times with PBS. To elute bound protein, beads were boiled for ten minutes with 10% SDS containing 10 mg/mL biotin. After elution, samples were boiled with 3×LDS and 2M DTT for twenty minutes. Gel electrophoresis using a 12% Bis-Tris gel was conducted on inputs (2%) and eluates (5 μL) and gels were developed using the Pierce silver staining kit (Thermo Fisher).

GST-MCL-1ΔNΔC = biological target: T3, GST-MCL-1ΔNΔC (Homo sapiens, UniProt Q07820); experiment: Streptavidin pulldown from recombinant protein mixture, MCL-1; assay type: binding; conditions: equimolar mixture of recombinant MCL-1, BCL-XL, BFL-1 and biotinylated SAHB, silver stain
T3 construct: BCL-XLΔC (aa 1-212) and MCL-1ΔNΔC (aa 172-329) were cloned into the PGEX-4T-1; made in house; host or cells: Escherichia coli BL21(DE3)
T3 sequence (Q07820 172-329, stated change not applied): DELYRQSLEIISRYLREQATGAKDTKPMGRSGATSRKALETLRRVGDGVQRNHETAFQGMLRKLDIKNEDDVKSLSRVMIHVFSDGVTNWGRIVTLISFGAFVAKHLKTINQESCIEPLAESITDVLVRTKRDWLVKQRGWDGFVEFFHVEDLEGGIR
Protocol: as §1

native BFL-1 = biological target: T4, native BFL-1 (Homo sapiens, UniProt Q16548); experiment: BFL-1 targeting in A375P lysates (streptavidin pulldown, BFL-1 western); assay type: binding; conditions: biotinylated SAHB, compared to acetylated construct
T4 construct: endogenous in cells; host or cells: A375P melanoma cells (A10); U937 AML cells (A12), lysates
T4 sequence (Q16548 1-175): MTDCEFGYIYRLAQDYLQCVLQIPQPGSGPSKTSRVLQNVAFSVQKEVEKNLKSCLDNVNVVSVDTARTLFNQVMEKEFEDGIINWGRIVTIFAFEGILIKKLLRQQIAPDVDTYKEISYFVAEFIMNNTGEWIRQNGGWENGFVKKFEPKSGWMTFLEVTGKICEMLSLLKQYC
Protocol: Cultured A375P and U937 cells were trypsinized or harvested, respectively, washed with PBS, and lysed by incubating with 1% CHAPS lysis buffer (1% CHAPS, 150 mM NaCl, 50 mM Tris pH 7.4, 100 μM DTT). The protein concentrations of the soluble fraction were measured using a BCA kit according to the manufacturer's instructions (Thermo Scientific). Lysate samples (1 mg) were incubated with vehicle or C-terminally biotinylated NOXA SAHBs (30 μM) overnight in 1% CHAPS lysis buffer at 4° C. Biotin capture was accomplished by incubating the mixture with high-capacity SA agarose (Thermo Scientific) for 2 hours at 4° C., followed by centrifugation and washing the pelleted beads three times with lysis buffer (1 mL). Bead-bound proteins were eluted by boiling in 10% SDS containing 10 mg/mL biotin for 10 minutes and then subjected to electrophoresis and western blotting using BFL-1 (Abcam, #125259) and MCL-1 (Rockland #600-401-394S) antibodies.

*AT8LRRFGDXLNFRQ (AT[R8]LRRFGD[S5]LNFRQ; staple 3-10 (inferred); not fully specified (N-terminus); printed as *AT8LRRFGDXLNFRQ; also: N-terminal cap * is Ac or D-nipecotic acid, not settled) [NOXA-15]
BFL-1 crosslinking (increase in molecular weight) (His-BFL-1ΔC C4S/C19S; BFL-1 constructs bearing C55 (wild-type and C4S/C19S) vs C55S, C4S/C19S/C55S): discrete increase in molecular weight | conversion of BFL-1 C4S/C19S to peptide adduct (His-BFL-1ΔC C4S/C19S; intact mass spectrometry): complete conversion | LDH release (lytic activity) (A375P cells): non-specific cell lysis | BFL-1 binding / pull down (His-BFL-1ΔC): robust BFL-1 pull down; also recorded: substantial pull-down of BFL-1 | MCL-1 binding / pull down (GST-MCL-1ΔNΔC): similarly small amount of MCL-1 | targeting of native BFL-1 (native BFL-1): markedly enhanced BFL-1 pull down compared to Ac-NOXA SAHB
